1 molecule from paper PMC7806871 (Cell Death Discovery, 2021) can be followed below.

For the assay, the target named is T1, Tuberculosis necrotizing toxin (TNT), C-terminal domain of CpnT, recombinant TNT-His6x (M. tuberculosis, UniProt O05442 648-846).
T1 construct: not shown: His6, C-terminal, kept
T1 sequence: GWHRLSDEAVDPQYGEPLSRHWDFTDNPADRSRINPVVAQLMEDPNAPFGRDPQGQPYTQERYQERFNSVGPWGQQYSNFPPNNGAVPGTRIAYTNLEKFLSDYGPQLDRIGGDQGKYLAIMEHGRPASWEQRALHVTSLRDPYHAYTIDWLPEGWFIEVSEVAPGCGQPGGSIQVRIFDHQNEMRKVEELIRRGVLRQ
The assay is described as follows: ELISA. The conditions noted are these: both partners purified.

B1: Immunity factor for TNT (IFT), recombinant IFT-His6x (natural protein)
chain: TIGVDLSTDLQDWIRLSGMNMIQGSETNDGRTILWNKGGEVRYFIDRLAGWYVITSSDRMSREGYEFAAASMSVIEKYLYGYFGGSVRSERELPAIRAPFQPEELMPEYSIGTMTFAGRQRDTLIDSSGTVVAITAADRLVELSHYLDVSVNVIKDSFLDSEGKPLFTLWKDYKG
notes: not shown: His6, C-terminal, kept
For B1, the binding result is recorded as “binds”.
